Test results reported in the Human Domainome abundance scans (Beltran et al. 2025).

B1: Advillin, residues 785 to 819; numbered along this chain, O75366 (parent)
chain: LSEQDFVSVFGITRGQFAALPGWKQLQMKKEKGLF

Variants of: B1
Assay: abundance fitness (aPCA) (normalised: wild type 0, dead -1); higher = more abundant; growth selection in yeast, the domain comes from the species named
Conditions: Homo sapiens

Abundance fitness of substitutions, site by site:
F6: G -1.08 | V -1.19 | H -0.87 | N -0.928 | I -0.162 | P -0.461 | K -0.514 | R -0.468 | Y -0.224 | W -0.186 | T -0.183 | D -0.831 | A -1.28 | E -0.906 | Q -0.402 | C 0.06 | S -0.488
V7: D -0.085 | M -0.291 | L 0.04 | G -0.306 | F -0.038 | T -0.115 | I -0.028 | K -0.384 | Q 0.004 | A -0.149 | S 0.071 | R -0.139 | E 0.105 | W -0.343
Q4: E 0.018 | V 0.002 | I 0.237 | L 0.016 | F -0.063 | A -0.064 | N -0.317 | K 0 | W -0.267 | S 0.019 | T -0.202 | R -0.11 | G -0.001 | D -0.592 | P -0.076 | C -0.846 | H -0.277
G11: D -0.647 | S -0.353 | M -0.986 | R -0.513 | E -0.65 | F 0.179 | V -0.537 | P -0.797 | T -0.547 | K -0.453 | A -0.485 | W -0.846 | L -1.05
E3: A -0.258 | Q -0.225 | P -0.268 | I -0.175 | T -0.092 | L -0.304 | H -0.323 | W -0.4 | F -0.039 | C -0.421 | D 0.103 | S -0.183 | Y -0.543 | N 0.165 | R -0.476 | K -0.409 | G -0.366 | M -0.461
D5: G -0.188 | T -0.255 | K -0.146 | Q -0.204 | W -1 | V -0.521 | R -0.188 | Y -0.782 | M -0.332 | C -1.17 | P -0.651 | L -0.209 | S -0.031 | E -0.073
L1: W -0.079 | C -0.279 | N -0.078 | K -0.266 | E 0.694 | S -0.135 | A -0.322 | G -0.051 | R -0.156
S2: C -0.175 | Y -0.505 | T -0.289 | W -0.305 | L -0.123 | M -0.514 | V -0.322 | K -0.127 | Q -0.416 | E -0.085 | R -0.282 | P -0.584 | G -0.078 | D 0.311
I12: L -0.101 | D -0.442 | E -0.592 | H -0.633 | G -0.429 | K -0.312 | A -0.445
V9: K -0.04 | C -0.527 | R -0.162 | Y -0.156 | L -0.131 | S -0.456 | E -0.149 | A -0.222 | M -0.184 | F -0.422 | D -0.443 | G -0.286 | H 0.018 | T -0.141 | P -0.632 | W -0.684
F10: Q -0.59 | M -0.305 | N -0.2 | K -0.319 | G -0.27 | L -0.392 | V -0.332 | D -0.316 | W -0.274 | P -0.726 | E -0.285 | C -0.31 | S -0.383 | H -0.932 | T -0.367 | Y -0.016 | A -0.398
S8: N -0.329 | W -0.439 | R 0.023 | L -0.238 | Y -0.84 | F -0.476 | E 0.119 | A 0.052 | P -0.506 | K 0.156 | G -0.026
